What all share (test): fluorescence anisotropy
Common to all, as to settings: 10 nM labelled DNA, 10 mM HEPES pH 7.0, 60 mM NaCl, 240 mM KCl, 25 C, anaerobic, 5 mM EDTA for apo or 1.2x (InrS) / 2.2x (ZiaR) metal …
For orientation: Polarisation of emitted light reports the rotation of a fluorescent probe.

In series [1] the test system is ZiaR (Synechocystis PCC 6803).
Series [2] has as its system InrS E98A (Synechocystis PCC 6803).
Series [3] relates to InrS E95A (Synechocystis PCC 6803).
For series [4], the system named is InrS (Synechocystis PCC 6803).

In general, Kd refers to the equilibrium constant for the complex coming apart. Read a low Kd as tighter binding. Regarding zia operator-promoter (zia o/p), the Kd in series [1] (Zn(II), 2.2 molar excess, K1 (printed as >>)) was > 10000 nM; in series [1] (Zn(II), 2.2 molar excess, K2 (printed as >>)) it was > 10000 nM; in series [1] (apo, 5 mM EDTA, K1 (first dimer)) it was 22 nM; in series [1] (apo, 5 mM EDTA, K2 (second dimer)) it was 530 nM.

Take “TCATCAATATCCCCCCTGGGGGCATAGAATAGA (double strand) [nrsDProFA (nrsD operator-promoter)]”: the Kd in series [2] (Ni(II), 1.2 molar excess) was determined as 1300 nM; in series [2] (apo, 5 mM EDTA) it was 21 nM; in series [3] (Ni(II), 1.2 molar excess), 1400 nM; in series [3] (apo, 5 mM EDTA) it was 22 nM; in series [4] (Cu(I), 1.2 molar excess), 3100 nM; in series [4] (Cu(II), 1.2 molar excess), 3600 nM. In addition, the Kd stood at 2300 nM in series [4] (Ni(II), 1.2 molar excess); 980 nM in series [4] (Zn(II), 1.2 molar excess); 9.4 nM in series [4] (apo, 5 mM EDTA).

Source of the values: PMC4235346.
